We go through three molecules from patent US20150203575A1 (Genentech, published 2015).

Experiment [1] deals with T1, CLEC4G expressed on cells (human, UniProt Q6UXB4 1-293).
T1 construct: Clone of the Origene human cDNA library; also called C type lectin superfamily 4 member G
T1 sequence: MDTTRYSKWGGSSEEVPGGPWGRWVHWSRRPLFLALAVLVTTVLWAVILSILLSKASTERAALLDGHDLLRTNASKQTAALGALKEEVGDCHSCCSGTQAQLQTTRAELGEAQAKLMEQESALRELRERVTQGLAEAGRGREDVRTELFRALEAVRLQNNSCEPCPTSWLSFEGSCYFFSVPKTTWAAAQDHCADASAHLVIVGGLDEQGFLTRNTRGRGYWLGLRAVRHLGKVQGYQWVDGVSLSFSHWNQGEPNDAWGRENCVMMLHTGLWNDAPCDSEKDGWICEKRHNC
In words: flow cytometry, transfected 293T cells, 2 µg/ml. Background: A flow cytometer gives signals particle by particle.

The target of experiment [2] is T2, human COLEC12 expressed on cells (human, UniProt Q5KU26 1-742).
T2 construct: also called hCOLEC12; C-terminal his tagged hCOLEC12
In words: flow cytometry, transfected 293T cells, 2 µg/ml.

Experiment [3] concerns the target T1, CLEC4G expressed on cells. In words: flow cytometry, transfected 293T cells, 50 µg/ml.
For experiment [4], the target named is T3, MAG expressed on cells (human, UniProt P20916 20-626).
T3 construct: Clone of the Origene human cDNA library; also called Myelin associated glycoprotein; SIGLEC4A
T3 sequence: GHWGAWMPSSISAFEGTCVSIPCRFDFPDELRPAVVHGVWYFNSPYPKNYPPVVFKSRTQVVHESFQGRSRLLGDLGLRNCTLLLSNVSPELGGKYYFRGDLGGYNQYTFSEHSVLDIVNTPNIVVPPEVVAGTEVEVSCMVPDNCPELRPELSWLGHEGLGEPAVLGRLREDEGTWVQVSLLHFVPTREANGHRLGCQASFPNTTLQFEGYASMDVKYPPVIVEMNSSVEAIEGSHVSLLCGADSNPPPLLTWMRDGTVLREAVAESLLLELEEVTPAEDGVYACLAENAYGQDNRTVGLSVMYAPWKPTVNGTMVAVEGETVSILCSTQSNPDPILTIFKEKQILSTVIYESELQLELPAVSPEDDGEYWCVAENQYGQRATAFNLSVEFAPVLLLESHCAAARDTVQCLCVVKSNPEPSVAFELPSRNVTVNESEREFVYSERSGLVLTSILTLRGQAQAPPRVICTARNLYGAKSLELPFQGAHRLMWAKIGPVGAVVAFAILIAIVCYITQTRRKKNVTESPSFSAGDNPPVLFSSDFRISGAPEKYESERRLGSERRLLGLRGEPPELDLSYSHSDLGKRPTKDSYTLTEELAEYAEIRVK
In words: flow cytometry, transfected 293T cells, 50 µg/ml.

For experiment [5], the target named is T4, LRRTM4 expressed on cells (human, UniProt Q86VH4 31-590).
T4 construct: Clone of the Origene human cDNA library; also called Leucine rich repeat transmembrane neuronal 4
In words: flow cytometry, transfected 293T cells, 50 µg/ml.

The target in experiment [6] is T1, CLEC4G expressed on cells. In words: flow cytometry, transfected 293T cells, 2 µg/ml. The source holds these as a separate data set.
Experiment [7] deals with T2, human COLEC12 expressed on cells. In words: flow cytometry, transfected 293T cells, 2 µg/ml. The source holds these as a separate data set.
For experiment [8], the target named is T3, MAG expressed on cells. In words: flow cytometry, transfected 293T cells.
For experiment [9], the target named is T3, MAG expressed on cells. In words: flow cytometry, transfected 293T cells, 2 µg/ml.
The target of experiment [10] is T4, LRRTM4 expressed on cells. In words: flow cytometry, transfected 293T cells, 2 µg/ml.
For experiment [11], the target named is T4, LRRTM4 expressed on cells. In words: flow cytometry, transfected 293T cells, 50 µg/ml. The source holds these as a separate data set.
The target of experiment [12] is T4, LRRTM4 expressed on cells. In words: flow cytometry, transfected 293T cells, 2 µg/ml. The source holds these as a separate data set.
The target of experiment [13] is T5, IL-2Ra expressed on cells (human, UniProt P01589 22-272).
T5 construct: Clone of the Origene human cDNA library; also called Interleukin 2 receptor alpha
T5 sequence: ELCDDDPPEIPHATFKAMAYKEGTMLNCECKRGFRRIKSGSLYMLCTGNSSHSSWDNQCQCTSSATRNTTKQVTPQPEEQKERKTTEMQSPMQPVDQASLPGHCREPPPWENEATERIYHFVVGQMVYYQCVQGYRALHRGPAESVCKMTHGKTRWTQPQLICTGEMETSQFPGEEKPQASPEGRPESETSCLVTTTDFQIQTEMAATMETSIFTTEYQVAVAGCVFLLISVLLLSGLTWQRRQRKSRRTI
In words: cDNA expression library screen with PILRα-AP supernatant on COS7 transfectants; positive clones further analysed by FACS.
Protocol: COS7 cells were plated in a 24-well format and transfected with 10 ul of Origene library DNA (Origene, human DNA library containing 20 k genes) per well with Fugene 6 Reagent. Two days later, cells were incubated with human or mouse PILRα-Ap supernatants for 45 min at room temperature (RT). Then cells were fixed with 4% PFA for 15 min at RT. After removing fixation buffer, cells were blocked with 100 mM Glycine in HBS (20 mM Hepes, PH7.2, 150 mM NaCl) for 15 min at RT. Cells were then rinsed and incubated in HBS for 90 min at 65° C. HBS was removed and Western Blue Substrate (Promega) was added and color was developed for 30 min to 1 hr.

Where two headings read alike, the source gives them in different places.

T4 sequence (Q86VH4 31-590 limits assumed): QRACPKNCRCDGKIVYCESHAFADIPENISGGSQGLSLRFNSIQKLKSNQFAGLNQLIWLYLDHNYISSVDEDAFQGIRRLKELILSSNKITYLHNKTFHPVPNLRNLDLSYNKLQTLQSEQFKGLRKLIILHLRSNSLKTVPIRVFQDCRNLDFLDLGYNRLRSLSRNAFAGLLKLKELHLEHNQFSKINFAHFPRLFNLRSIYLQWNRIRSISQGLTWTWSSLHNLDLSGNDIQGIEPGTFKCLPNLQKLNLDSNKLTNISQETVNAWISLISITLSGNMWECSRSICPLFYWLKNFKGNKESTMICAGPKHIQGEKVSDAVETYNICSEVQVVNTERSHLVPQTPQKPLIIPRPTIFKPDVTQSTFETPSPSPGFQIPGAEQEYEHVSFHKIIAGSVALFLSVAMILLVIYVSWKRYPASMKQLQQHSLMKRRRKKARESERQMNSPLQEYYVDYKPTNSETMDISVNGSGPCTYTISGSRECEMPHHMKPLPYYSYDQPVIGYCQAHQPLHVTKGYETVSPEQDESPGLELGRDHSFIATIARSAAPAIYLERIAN
T2 sequence (Q5KU26 whole entry S522P/G606S): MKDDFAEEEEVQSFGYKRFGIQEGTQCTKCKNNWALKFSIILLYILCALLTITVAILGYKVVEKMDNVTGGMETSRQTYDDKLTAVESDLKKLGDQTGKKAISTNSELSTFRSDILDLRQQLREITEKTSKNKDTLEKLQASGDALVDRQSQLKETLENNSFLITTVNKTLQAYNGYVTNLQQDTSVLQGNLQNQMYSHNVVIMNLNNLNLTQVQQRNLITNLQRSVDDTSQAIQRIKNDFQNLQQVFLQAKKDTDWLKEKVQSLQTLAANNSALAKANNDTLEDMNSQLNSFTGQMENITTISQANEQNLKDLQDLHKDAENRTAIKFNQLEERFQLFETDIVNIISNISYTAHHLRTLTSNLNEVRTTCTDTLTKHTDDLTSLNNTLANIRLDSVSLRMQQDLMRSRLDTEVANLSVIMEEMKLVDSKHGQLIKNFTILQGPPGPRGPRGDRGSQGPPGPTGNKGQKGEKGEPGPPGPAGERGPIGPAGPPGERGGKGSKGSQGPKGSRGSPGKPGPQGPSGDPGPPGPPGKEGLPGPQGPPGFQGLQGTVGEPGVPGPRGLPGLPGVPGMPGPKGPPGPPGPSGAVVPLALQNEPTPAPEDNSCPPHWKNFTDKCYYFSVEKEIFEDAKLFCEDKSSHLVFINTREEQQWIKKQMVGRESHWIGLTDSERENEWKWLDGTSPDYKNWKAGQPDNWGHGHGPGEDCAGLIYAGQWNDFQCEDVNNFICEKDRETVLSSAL

B1: mPILRα-Fc (Fc fusion)
chain: not shown
notes: also called mouse PILRα-Fc; WT mPILRα-Fc; not shown: Fc of mouse IgG2a (PILRα-mIgG2a, called PILRα-Fc)
With B1, the “% cells in lower right quadrant” value in experiment [1] was determined as 69.9%; in [2], 0.082%; in experiment [3], 85.5%; in the experiment with MAG expressed on cells [4], 0.55%; in experiment [5] it was 16.6%; in [6] it was 69.9%. Moreover, the “% cells in lower right quadrant” value came to 0.082% in experiment [7]; 0.039% with MAG expressed on cells [9]; 2.68% in [10]; 16.6% in [11]; 2.68% in experiment [12]. For the same molecule, in the experiment with MAG expressed on cells [8], the binding result is “no binding (tested: 50 µg/ml)”.

B2: mPILRαR133A-Fc (Fc fusion)
chain: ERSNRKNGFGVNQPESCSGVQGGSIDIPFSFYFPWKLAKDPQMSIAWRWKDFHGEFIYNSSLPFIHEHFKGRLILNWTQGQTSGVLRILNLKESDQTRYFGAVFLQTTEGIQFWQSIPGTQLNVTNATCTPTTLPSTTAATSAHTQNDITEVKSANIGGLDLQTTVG
notes: Arg mutant of mPILRα-Fc; also called mPILRα133A-Fc; variant mPILRα (R133A); not shown: Fc of mouse IgG2a (PILRα-mIgG2a, called PILRα-Fc)
As for B2, the “% cells in lower right quadrant” value was found to be 0.044% in [1]; 0.014% in experiment [2]; 0.045% in experiment [3]; 0% with MAG expressed on cells [4]; 0.019% in [5]; 0.044% in experiment [6]. Also, the “% cells in lower right quadrant” value in experiment [7] is 0.014%; in the experiment with MAG expressed on cells [9], 0%; in experiment [10], 0.025%; in experiment [11], 0.019%; in [12], 0.025%. Moreover, the binding result with MAG expressed on cells [8] is “no binding (tested: 50 µg/ml)”.

B3: hPILRα-AP (other)
chain: QPSGSTGSGPSYLYGVTQPKHLSASMGGSVEIPFSFYYPWELATAPDVRISWRRGHFHRQSFYSTRPPSIHKDYVNRLFLNWTEGQKSGFLRISNLQKQDQSVYFCRVELDTRSSGRQQWQSIEGTKLSITQAVTTTTQRPSSMTTTWRLSSTTTTTGLRVTQGKRRSDSWHISLET
notes: Used as culture supernatant; also called human PILRα-AP; Alkaline phosphatase (AP)-tagged PILRα construct; not shown: C-terminal alkaline phosphatase (AP) tag
Consider B3, for which, in experiment [13], the binding result was “binds”.
